The values that follow come from publication PMC11261779, “Structural studies of WDR5 in complex with MBD3C WIN motif reveal a unique binding mode” (The Journal of Biological Chemistry, 2024).

Experiment [1] deals with WD repeat-containing protein 5 (WDR5), truncated construct, residues 24-334 (mouse, UniProt P61965 24-334). Kind of experiment: ITC; peptide (0.5 to 1.0 mM) titrated into WDR5 protein (44.5 μM) in the cell; 20 °C; Buffer D (20 mM Tris-HCl, 200 mM NaCl, pH 7.5); single binding site model. Particulars: both partners purified. In general terms: In ITC the heat of successive injections is recorded.

Experiment [2] addresses WDR5 (residues 24-334) D107S (mouse, UniProt P61965 24-334, D107S). Described as above. The note with it: both partners purified.

As a reminder, the Kd is the free concentration of one partner at which half of the binding sites on the other are occupied at equilibrium, for simple one-to-one binding. A higher Kd goes with lower affinity. In general, stoichiometry N refers to the number of molecules, sites or subunits per partner or assembly.

B1: MBD3C_(40-51) peptide (methyl-CpG binding domain 3 isoform C, WIN motif) (peptide)
peptide: GAARCRVFSPQG
notes: numbers count on: isoform MBD3C; also called MBD3C peptide; MBD3C WIN motif; source: synthetic peptide (GenScript)
In the case of B1, in experiment [1], binding was put at a Kd of 130 ± 20 nM, the dH is -11.4 ± 0.13 kcal/mol and the “stoichiometry N” value amounted to 1.06. Moreover, in experiment [2], the Kd came out at 10800 ± 1030 nM, the dH is -5.4 ± 0.17 kcal/mol and the “stoichiometry N” value amounted to 1.34.

B2: MBD3C_(40-51) (R43K) peptide (peptide)
peptide: GAAKCRVFSPQG
notes: numbers count on: isoform MBD3C; also called MBD3C^R43K; source: synthetic peptide (GenScript)
Regarding B2, in experiment [1], the affinity, expressed as Kd, was 1310 ± 210 nM; the dH is -15 ± 0.52 kcal/mol; the “stoichiometry N” value stood at 1.17.

B3: MBD3C_(40-51) (R45E) peptide (peptide)
peptide: GAARCEVFSPQG
notes: numbers count on: isoform MBD3C; also called MBD3C^R45E; source: synthetic peptide (GenScript)
For B3, in experiment [1], the Kd was 670 ± 60 nM, the dH is -7.49 ± 0.08 kcal/mol and the “stoichiometry N” value was 1.25.

B4: MBD3C_(40-51) (F47H) peptide (peptide)
peptide: GAARCRVHSPQG
notes: numbers count on: isoform MBD3C; also called MBD3C^F47H; source: synthetic peptide (GenScript)
In the case of B4, in experiment [1], the affinity, expressed as Kd, was 1010 ± 40 nM; the dH was -7.8 ± 0.04 kcal/mol; the “stoichiometry N” value amounted to 0.99.

B5: MBD3C_(40-51) (F47A) peptide (peptide)
peptide: GAARCRVASPQG
notes: numbers count on: isoform MBD3C; also called MBD3C^F47A; source: synthetic peptide (GenScript)
As to B5, in experiment [1], the Kd is 650 ± 30 nM, the dH is -7.32 ± 0.05 kcal/mol and the “stoichiometry N” value worked out at 1.34.
